Numbering of substitutions follows the chain as printed.
Assays:
Test in all cases: holdup assay
Parameters in all cases: key: below the threshold = too weak to quantify, mostly under pKd 3.1 to 4
LIN7A, O14910 = target: T1, LIN7A, O14910
T1 sequence (O14910 103-200, limits assumed, looked up): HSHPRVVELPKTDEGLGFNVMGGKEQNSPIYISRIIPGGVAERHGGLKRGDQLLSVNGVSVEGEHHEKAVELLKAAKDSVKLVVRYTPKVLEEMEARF

IL16_4, Q14005 = target: IL16_4, Q14005
Inadl_4, Q8NI35 = target: Inadl_4, Q8NI35
PARD3_3, Q8TEW0 = target: PARD3_3, Q8TEW0
DLG4_1, P78352 = target: DLG4_1, P78352
LNX2_2, Q8N448 = target: T2, LNX2_2, Q8N448
T2 sequence (Q8N448 334-432, limits assumed, looked up): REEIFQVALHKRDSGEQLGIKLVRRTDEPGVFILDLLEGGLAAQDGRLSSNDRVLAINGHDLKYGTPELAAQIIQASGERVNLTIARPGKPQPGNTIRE

NOS1, P29475 = target: NOS1, P29475
PDZRN4_1, Q6ZMN7 = target: PDZRN4_1, Q6ZMN7
NHERF3_3, Q5T2W1 = target: T3, NHERF3_3, Q5T2W1
T3 sequence (Q5T2W1 238-333, limits assumed, looked up): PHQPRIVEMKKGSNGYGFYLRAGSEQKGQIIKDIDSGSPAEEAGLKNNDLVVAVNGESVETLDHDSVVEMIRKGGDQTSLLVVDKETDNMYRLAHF

Inadl_8, Q8NI35 = target: Inadl_8, Q8NI35
SNTG1, Q9NSN8 = target: T4, SNTG1, Q9NSN8
T4 sequence (Q9NSN8 52-150, limits assumed, looked up): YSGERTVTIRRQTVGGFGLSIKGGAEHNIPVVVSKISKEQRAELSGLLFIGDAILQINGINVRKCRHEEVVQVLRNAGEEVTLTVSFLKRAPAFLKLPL

Inadl_2, Q8NI35 = target: Inadl_2, Q8NI35
GRIP2_4, Q9C0E4 = target: GRIP2_4, Q9C0E4
GRIP1_2, Q9Y3R0 = target: T5, GRIP1_2, Q9Y3R0
T5 sequence (Q9Y3R0 145-248, limits assumed, looked up): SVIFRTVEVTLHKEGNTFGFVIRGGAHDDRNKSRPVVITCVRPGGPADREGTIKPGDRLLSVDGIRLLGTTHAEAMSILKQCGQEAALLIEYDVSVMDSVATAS

SNTA1, Q13424 = target: T6, SNTA1, Q13424
T6 sequence (Q13424 82-180, limits assumed, looked up): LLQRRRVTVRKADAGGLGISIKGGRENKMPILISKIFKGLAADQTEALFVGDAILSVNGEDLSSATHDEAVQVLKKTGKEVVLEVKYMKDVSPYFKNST

MAGI1_1, Q96QZ7 = target: MAGI1_1, Q96QZ7
GIPC2, Q8TF65 = target: GIPC2, Q8TF65
MPP7, Q5T2T1 = target: T7, MPP7, Q5T2T1
T7 sequence (Q5T2T1 134-230, limits assumed, looked up): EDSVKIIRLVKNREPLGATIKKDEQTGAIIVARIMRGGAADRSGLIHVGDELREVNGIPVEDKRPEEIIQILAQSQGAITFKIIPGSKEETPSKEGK

PICK1, Q9NRD5 = target: PICK1, Q9NRD5
SNX27, Q96L92 = target: SNX27, Q96L92
ARHGEF11, O15085 = target: T8, ARHGEF11, O15085
T8 sequence (O15085 42-136, limits assumed, looked up): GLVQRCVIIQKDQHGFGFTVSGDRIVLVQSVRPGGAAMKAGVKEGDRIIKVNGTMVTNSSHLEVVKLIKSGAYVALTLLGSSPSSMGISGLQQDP

SYNJ2BP, P57105 = target: T9, SYNJ2BP, P57105
T9 sequence (P57105 8-110, limits assumed, looked up): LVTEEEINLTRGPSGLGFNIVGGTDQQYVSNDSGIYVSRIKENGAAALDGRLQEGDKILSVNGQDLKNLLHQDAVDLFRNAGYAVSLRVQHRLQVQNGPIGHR

APBA1_2, Q02410 = target: T10, APBA1_2, Q02410
T10 sequence (Q02410 742-832, limits assumed, looked up): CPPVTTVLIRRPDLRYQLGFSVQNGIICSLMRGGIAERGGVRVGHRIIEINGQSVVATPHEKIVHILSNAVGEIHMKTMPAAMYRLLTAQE

PTPN13_1, Q12923 = target: T11, PTPN13_1, Q12923
T11 sequence (Q12923 1088-1188, limits assumed, looked up): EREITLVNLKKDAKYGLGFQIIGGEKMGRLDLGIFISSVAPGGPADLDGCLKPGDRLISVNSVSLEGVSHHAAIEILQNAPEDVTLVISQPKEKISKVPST

APBA2_2, Q99767 = target: T12, APBA2_2, Q99767
T12 sequence (Q99767 654-744, limits assumed, looked up): T10 sequence (Q02410 742-832, limits assumed, looked up) with R10K, R15K, P59A, H65Q, I66A, A70S, Y84F, A89G

DLG4_2, P78352 = target: DLG4_2, P78352
[1] = plain residues with an end cap or a label only (N-terminal biotin on a linker: ttds)
[2] = plain residues with an end cap or a label only (N-terminal biotin on a linker: ado-ado)

NOS1, P29475, sequence (P29475 9-101): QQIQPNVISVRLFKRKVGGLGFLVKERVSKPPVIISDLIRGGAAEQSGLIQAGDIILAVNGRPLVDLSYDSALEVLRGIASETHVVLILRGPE
IL16_4, Q14005, sequence (Q14005 1229-1329): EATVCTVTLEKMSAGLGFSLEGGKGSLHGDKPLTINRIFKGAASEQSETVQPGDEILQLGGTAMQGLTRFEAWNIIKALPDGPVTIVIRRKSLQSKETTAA
GRIP2_4, Q9C0E4, sequence (Q9C0E4 446-548): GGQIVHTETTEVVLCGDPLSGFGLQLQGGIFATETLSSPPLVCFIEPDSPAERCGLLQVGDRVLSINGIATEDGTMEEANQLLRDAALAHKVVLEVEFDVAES
DLG4_1, P78352, sequence (P78352 62-152): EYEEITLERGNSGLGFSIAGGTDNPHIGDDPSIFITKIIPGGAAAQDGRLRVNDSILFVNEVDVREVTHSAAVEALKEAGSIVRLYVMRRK
DLG4_2, P78352, sequence (P78352 155-259): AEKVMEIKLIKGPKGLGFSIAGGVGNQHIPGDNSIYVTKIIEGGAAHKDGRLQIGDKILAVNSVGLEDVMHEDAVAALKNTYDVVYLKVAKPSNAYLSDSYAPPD
Inadl_2, Q8NI35, sequence (Q8NI35 238-335): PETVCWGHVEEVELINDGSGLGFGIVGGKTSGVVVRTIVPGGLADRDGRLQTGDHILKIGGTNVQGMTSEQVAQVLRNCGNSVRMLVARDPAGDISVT
Inadl_4, Q8NI35, sequence (Q8NI35 547-651): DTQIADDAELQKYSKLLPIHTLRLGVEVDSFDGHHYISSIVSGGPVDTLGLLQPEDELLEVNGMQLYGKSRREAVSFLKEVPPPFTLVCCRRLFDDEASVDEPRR
GIPC2, Q8TF65, sequence (Q8TF65 112-203): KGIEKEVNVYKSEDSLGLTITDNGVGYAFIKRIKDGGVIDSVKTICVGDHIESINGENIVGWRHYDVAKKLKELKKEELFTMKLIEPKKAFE
PDZRN4_1, Q6ZMN7, sequence (Q6ZMN7 213-318): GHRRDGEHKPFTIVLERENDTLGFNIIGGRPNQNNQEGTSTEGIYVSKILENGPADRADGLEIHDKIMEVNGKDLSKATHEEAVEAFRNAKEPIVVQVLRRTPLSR
Inadl_8, Q8NI35, sequence (Q8NI35 1425-1530): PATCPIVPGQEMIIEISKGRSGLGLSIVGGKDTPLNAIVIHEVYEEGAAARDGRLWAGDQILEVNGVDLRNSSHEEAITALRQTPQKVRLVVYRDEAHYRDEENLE
MAGI1_1, Q96QZ7, sequence (Q96QZ7 1-106): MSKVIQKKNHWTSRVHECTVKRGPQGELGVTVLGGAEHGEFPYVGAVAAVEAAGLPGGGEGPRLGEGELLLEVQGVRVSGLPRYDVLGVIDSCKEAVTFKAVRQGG
PARD3_3, Q8TEW0, sequence (Q8TEW0 582-685): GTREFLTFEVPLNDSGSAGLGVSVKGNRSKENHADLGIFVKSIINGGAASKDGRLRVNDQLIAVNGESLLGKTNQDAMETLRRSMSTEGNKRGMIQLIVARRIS
PICK1, Q9NRD5, sequence (Q9NRD5 17-115): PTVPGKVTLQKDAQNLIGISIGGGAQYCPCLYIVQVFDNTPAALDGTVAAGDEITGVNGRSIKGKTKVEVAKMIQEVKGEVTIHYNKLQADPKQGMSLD

## LCALPKVTTV [AGMAT, Q9BSE5]
LIN7A, O14910; [1]
  pKd: 3.64
IL16_4, Q14005; [1]
  pKd: below the threshold
Inadl_4, Q8NI35; [1]
  pKd: below the threshold
PARD3_3, Q8TEW0; [1]
  pKd: 3.62
DLG4_1, P78352; [1]
  pKd: 4.69
LNX2_2, Q8N448; [1]
  pKd: 5.21
NOS1, P29475; [1]
  pKd: 3.7
PDZRN4_1, Q6ZMN7; [1]
  pKd: 3.75
NHERF3_3, Q5T2W1; [1]
  pKd: below the threshold
Inadl_8, Q8NI35; [1]
  pKd: 4.82
SNTG1, Q9NSN8; [1]
  pKd: 4.39
Inadl_2, Q8NI35; [1]
  pKd: below the threshold
GRIP2_4, Q9C0E4; [1]
  pKd: below the threshold
GRIP1_2, Q9Y3R0; [1]
  pKd: below the threshold
SNTA1, Q13424; [1]
  pKd: 4.81
MAGI1_1, Q96QZ7; [1]
  pKd: below the threshold
GIPC2, Q8TF65; [1]
  pKd: below the threshold
MPP7, Q5T2T1; [1]
  pKd: below the threshold
PICK1, Q9NRD5; [1]
  pKd: below the threshold
SNX27, Q96L92; [1]
  pKd: 4.43
ARHGEF11, O15085; [1]
  pKd: 4.52
SYNJ2BP, P57105; [1]
  pKd: 4.35
APBA1_2, Q02410; [1]
  pKd: 3.86
PTPN13_1, Q12923; [1]
  pKd: below the threshold
APBA2_2, Q99767; [1]
  pKd: below the threshold
DLG4_2, P78352; [1]
  pKd: 5.29

## TETASVCTKV [SLC23A1, Q9UHI7]
LIN7A, O14910; [2]
  pKd: below the threshold
IL16_4, Q14005; [2]
  pKd: 3.55
Inadl_4, Q8NI35; [2]
  pKd: below the threshold
PARD3_3, Q8TEW0; [2]
  pKd: below the threshold
DLG4_1, P78352; [2]
  pKd: 3.9
LNX2_2, Q8N448; [2]
  pKd: 3.91
NOS1, P29475; [2]
  pKd: 3.62
PDZRN4_1, Q6ZMN7; [2]
  pKd: below the threshold
NHERF3_3, Q5T2W1; [2]
  pKd: 3.7
Inadl_8, Q8NI35; [2]
  pKd: 4.01
SNTG1, Q9NSN8; [2]
  pKd: 3.76
Inadl_2, Q8NI35; [2]
  pKd: below the threshold
GRIP2_4, Q9C0E4; [2]
  pKd: below the threshold
GRIP1_2, Q9Y3R0; [2]
  pKd: below the threshold
SNTA1, Q13424; [2]
  pKd: 4
MAGI1_1, Q96QZ7; [2]
  pKd: below the threshold
GIPC2, Q8TF65; [2]
  pKd: 3.6
MPP7, Q5T2T1; [2]
  pKd: below the threshold
PICK1, Q9NRD5; [2]
  pKd: 4.24
SNX27, Q96L92; [2]
  pKd: 4.85
ARHGEF11, O15085; [2]
  pKd: 4.24
SYNJ2BP, P57105; [2]
  pKd: below the threshold
APBA1_2, Q02410; [2]
  pKd: 4.64
PTPN13_1, Q12923; [2]
  pKd: below the threshold
APBA2_2, Q99767; [2]
  pKd: below the threshold
DLG4_2, P78352; [2]
  pKd: 4.15

## RTRQRNETQV [HPV51-E6, P26554]
LIN7A, O14910; [1]
  pKd: below the threshold
IL16_4, Q14005; [1]
  pKd: below the threshold
Inadl_4, Q8NI35; [1]
  pKd: below the threshold
PARD3_3, Q8TEW0; [1]
  pKd: below the threshold
DLG4_1, P78352; [1]
  pKd: 4.9
LNX2_2, Q8N448; [1]
  pKd: 3.61
NOS1, P29475; [1]
  pKd: 3.91
PDZRN4_1, Q6ZMN7; [1]
  pKd: 4.16
NHERF3_3, Q5T2W1; [1]
  pKd: below the threshold
Inadl_8, Q8NI35; [1]
  pKd: below the threshold
SNTG1, Q9NSN8; [1]
  pKd: 3.98
Inadl_2, Q8NI35; [1]
  pKd: below the threshold
GRIP2_4, Q9C0E4; [1]
  pKd: below the threshold
GRIP1_2, Q9Y3R0; [1]
  pKd: 3.46
SNTA1, Q13424; [1]
  pKd: 4.23
MAGI1_1, Q96QZ7; [1]
  pKd: below the threshold
GIPC2, Q8TF65; [1]
  pKd: 3.63
MPP7, Q5T2T1; [1]
  pKd: below the threshold
PICK1, Q9NRD5; [1]
  pKd: below the threshold
SNX27, Q96L92; [1]
  pKd: 4.85
ARHGEF11, O15085; [1]
  pKd: 3.69
SYNJ2BP, P57105; [1]
  pKd: 5.02
APBA1_2, Q02410; [1]
  pKd: 3.56
PTPN13_1, Q12923; [1]
  pKd: below the threshold
APBA2_2, Q99767; [1]
  pKd: below the threshold
DLG4_2, P78352; [1]
  pKd: 4.99

## DPRNTQTSQI [ABRAXAS2, Q15018]
LIN7A, O14910; [1]
  pKd: below the threshold
IL16_4, Q14005; [1]
  pKd: 3.66
Inadl_4, Q8NI35; [1]
  pKd: below the threshold
PARD3_3, Q8TEW0; [1]
  pKd: 3.64
DLG4_1, P78352; [1]
  pKd: 3.65
LNX2_2, Q8N448; [1]
  pKd: below the threshold
NOS1, P29475; [1]
  pKd: 3.52
PDZRN4_1, Q6ZMN7; [1]
  pKd: 3.56
NHERF3_3, Q5T2W1; [1]
  pKd: below the threshold
Inadl_8, Q8NI35; [1]
  pKd: 3.54
SNTG1, Q9NSN8; [1]
  pKd: below the threshold
Inadl_2, Q8NI35; [1]
  pKd: below the threshold
GRIP2_4, Q9C0E4; [1]
  pKd: below the threshold
GRIP1_2, Q9Y3R0; [1]
  pKd: 3.57
SNTA1, Q13424; [1]
  pKd: below the threshold
MAGI1_1, Q96QZ7; [1]
  pKd: below the threshold
GIPC2, Q8TF65; [1]
  pKd: 3.54
MPP7, Q5T2T1; [1]
  pKd: below the threshold
PICK1, Q9NRD5; [1]
  pKd: below the threshold
SNX27, Q96L92; [1]
  pKd: 4.04
ARHGEF11, O15085; [1]
  pKd: 4.03
SYNJ2BP, P57105; [1]
  pKd: 3.68
APBA1_2, Q02410; [1]
  pKd: 3.71
PTPN13_1, Q12923; [1]
  pKd: below the threshold
APBA2_2, Q99767; [1]
  pKd: below the threshold
DLG4_2, P78352; [1]
  pKd: 3.55

From article PMC9482650, “Quantitative fragmentomics allow affinity mapping of interactomes” (Nature Communications, 2022)
